{"source": "patent US20240287164A1", "about": "“ANTIBODIES SPECIFIC TO NELL2 AND METHODS OF USE” (BOARD OF REGENTS, THE UNIVERSITY OF TEXAS SYSTEM, priority 2021, published 2024)", "key": {"[1]": {"tested_on": "BAF complexes", "experiment": "Actin in BAF complexes (immunoprecipitation, phalloidin dot blot and phalloidin pull-down)", "format": "cell-based", "conditions": "A-673 cell nuclear extract", "protocol": "Immunoprecipitation. Immunoprecipitation was performed (Shiio, Y., and Eisenman, R. N. (2003) Histone sumoylation is associated with transcriptional repression. Proc Natl Acad Sci USA). The following antibodies were used: rabbit monoclonal anti-BRG1 (ab110641, Abcam), rabbit monoclonal anti-BAF57 (33360, Cell Signaling Technologies), and mouse monoclonal anti-FLAG M2 (F1804, MilliporeSigma).\nPhalloidin dot blot assays. The BAF complexes were immuno-purified from nuclear extract using anti-BRG1 or anti-BAF57, (for endogenous BAF) or anti-FLAG antibody (for FLAG-BRG1-containing BAF) and were spotted onto a nitrocellulose membrane (sample amount normalized by cell number). The membrane was allowed to dry at room temperature for 30 minutes. The membrane was rinsed with TBST (150 mM NaCl, 20 mM Tris, pH7.4, 0.05% Tween-20), blocked with 5% BSA in TBST, and incubated with Biotin-XX Phalloidin (Biotium) either overnight at 4° C. or for two hours at room temperature followed by three washes with TBST. The membrane was incubated with High Sensitivity Streptavidin-HRP (21130, Pierce/Thermo Fisher) for one hour and was washed three times with TBST, followed by detection with ECL reagent."}, "[2]": {"tested_on": "A-673 and EW8 cells", "experiment": "Proliferation of NELL2- or Robo3-silenced Ewing sarcoma cells (IncuCyte)", "format": "cell-based, human", "conditions": "A-673 cells transfected with NELL2 siRNAs, recombinant NELL2 250 ng/ml", "protocol": "Transfection and viral infection. Calcium phosphate co-precipitation was used for transfection of 293T cells. Lentiviruses were prepared by transfection in 293T cells following System Biosciences' protocol, and the cells infected with lentiviruses were selected with 2 μg/mL puromycin for 48 hours. The target sequences for shRNAs are as follows: FLI1 C-terminus shRNA, […] (SEQ ID NO: 20); luciferase shRNA, […] (SEQ ID NO: 21); NELL2 shRNA-1, […] (SEQ ID NO: 22); and NELL2 shRNA-2, […] (SEQ ID NO: 23). The following siRNAs were used: human NELL2 siRNA SMARTpool (M-012185-00); Dharmacon), human Robo3 siRNA SMARTpool (M-026504-00; Dharmacon), human Robo3 siRNAs NM_022370 (SASI_Hs01_00099511, SASI_Hs01_00099512, SASI_Hs01_00099513, SASI_Hs01_00099514, SASI_Hs01_00099515 and SASI_Hs01_00099516; MilliporeSigma), human cdc42 siRNA SMARTpool (M-005057-01; Dharmacon), human CD133 siRNA SMARTpool (M-010630-01; Dharmacon), human srGAP1 siRNA SMARTpool (M-026974-00; Dharmacon), srGAP2 siRNA SMARTpool (M-021531-03; Dharmacon), human caveolin-1 siRNA SMARTpool (M-003467-01; Dharmacon), human GDF6 siRNA SMARTpool (M-0330055-01; Dharmacon), and Non-Targeting siRNA Pool #2 (D-0012Jun. 14, 2005; Dharmacon), siRNA transfection of cell lines was performed using Lipofectamine™ RNAiMAX Transfection Reagent (Thermo Fisher).\nCell proliferation and xenograft tumorigenicity assays. Anchorage-dependent cell proliferation was assessed by IncuCyte live-cell imaging system (Essen BioScience). The IncuCyte system monitors cell proliferation by analyzing the occupied area (% confluence) of cell images over time. At least four fields from four wells were assayed for each experimental condition. The cell seeding density was 2000 cells per well in a 96-well plate. […] Anchorage-independent cell proliferation was evaluated by soft agar colony formation assays. […] Colonies were grown for three weeks and counted. Colonies (>50 cells) were scored by randomly counting 10 fields per dish. […] Tumor growth was monitored weekly using a caliper. […]"}, "[3]": {"tested_on": "BAF complexes", "experiment": "BAF subunit protein levels by immunoblotting in Ewing sarcoma cells", "format": "cell-based, human", "from_the_text": "Immunoblotting. […] The following antibodies were used: rabbit polyclonal anti-FLI1 (ab15289, Abcam); mouse monoclonal anti-FLAG M2 (F1804, MilliporeSigma): rabbit monoclonal anti-NELL2 (ab181376, Abcam); goat polyclonal anti-PGK1 (sc-17943, Santa Cruz Biotechnology); rabbit polyclonal anti-Robo3 (LS-C345713, LSBio); goat polyclonal anti-Robo3 (PA5-18714, Thermo Fisher Scientific); mouse monoclonal anti-cdc42 (ACD03, Cytoskeleton); rabbit polyclonal anti-Rac1/2/3 (2465, Cell Signaling Technologies); rabbit polyclonal anti-Rho A (2117, Cell Signaling Technologies); goat polyclonal anti-BRG1 (A303-877A, Bethyl Laboratories); rabbit monoclonal anti-BRG1 (49360, Cell Signaling Technologies); rabbit polyclonal anti-BRM (A301-014A-T, Bethyl Laboratories); mouse monoclonal anti-ARID1A/BAF250) (sc-32761, Santa Cruz Biotechnology); rabbit polyclonal anti-BAF170 (A301-039A-T, Bethyl Laboratories); rabbit monoclonal anti-BAF155 (11956, Cell Signaling Technologies); rabbit polyclonal anti-BAF60B (A301-596A-T, Bethyl Laboratories); rabbit polyclonal anti-BAF57 (A300-810A-T, Bethyl Laboratories); rabbit polyclonal anti-BAF53A (A301-391A-T, Bethyl Laboratories); rabbit monoclonal anti-BAF47 (8745, Cell Signaling Technologies); rabbit polyclonal anti-BRD9 (A303-781A-T, Bethyl Laboratories); rabbit monoclonal anti-SS18 (21792, Cell Signaling Technologies); rabbit monoclonal anti-CD133 (64326, Cell Signaling Technologies); rabbit polyclonal anti-srGAP1 (A301-286A-T, Bethyl Laboratories); rabbit polyclonal anti-srGAP2 (GTX130797, GeneTex); mouse monoclonal anti-tubulin (DMIA, Thermo Fisher Scientific); rabbit polyclonal anti-β-actin (4967, Cell Signaling Technologies); mouse monoclonal anti-Rpb1 (2629, Cell Signaling Technologies); rabbit monoclonal anti-cdc6 (3387, Cell Signaling Technologies); rabbit monoclonal anti-caveolin-1 (3267, Cell Signaling Technologies); rabbit polyclonal anti-phospho-caveolin-1 (3251, Cell Signaling Technologies); rabbit monoclonal anti-Src (2123, Cell Signaling Technologies); rabbit monoclonal anti-phospho-Src Family (6943, Cell Signaling Technologies); and rabbit polyclonal anti-GDF6 (NBP1-91934, Novus Biologicals). The following HRP-conjugated secondary antibodies were used: goat anti-rabbit (7074) and goat anti-mouse (7076) (Cell Signaling Technologies); donkey anti-goat (A50)-201P, Bethyl Laboratories)."}, "[4]": {"tested_on": "cdc42 and Rac", "experiment": "GST-PAKI pull-down of active cdc42 and Rac", "format": "cell-based, human", "conditions": "FIG. 3D", "protocol": "GST pull-down assays. The active form of cdc42, Rac, and Rho A was analyzed by pull-down of whole cell lysate with GST-PAKI (active cdc42 and Rac) and GST-RBD (active Rho A) followed by immunoblotting for cdc42, Rac, and Rho A as described (Ren, X. D., et al. (1999) EMBO J 18, 578-585)."}, "[5]": {"tested_on": "BAF complexes", "experiment": "Gel filtration chromatography of nuclear extract (BAF complex assembly)", "format": "cell-based", "conditions": "A-673 cells; four-hour treatment", "protocol": "Gel filtration chromatography. Nuclear extract was prepared as described (Carey, M. F., et al. (2009) Dignam and Roeder nuclear extract preparation. Cold Spring Harbor protocols 2009, pdb prot5330). The extract (5 mg) was loaded onto HiPrep 16/60 Sephacryl S-400 HR column (GE Healthcare) equilibrated with a gel filtration buffer (150 mM NaCl, 20 mM Hepes-KOH, 10 mM KCl, 1 mM MgCl2, 1 mM EDTA, 1 mM EGTA, 1 mM DTT, pH 7.5). Proteins were eluted at 1 ml/min and 1-ml fractions were collected. Every fourth fraction was concentrated and analyzed by immunoblotting."}, "[6]": {"tested_on": "CD133^low population", "experiment": "Proliferation of sorted CD133low population (IncuCyte)", "format": "cell-based, human", "conditions": "FIG. 5A", "protocol": "Cell proliferation and xenograft tumorigenicity assays. Anchorage-dependent cell proliferation was assessed by IncuCyte live-cell imaging system (Essen BioScience). The IncuCyte system monitors cell proliferation by analyzing the occupied area (% confluence) of cell images over time. At least four fields from four wells were assayed for each experimental condition. The cell seeding density was 2000 cells per well in a 96-well plate. For each assay, biological replicates were performed to confirm the reproducibility of results. Anchorage-independent cell proliferation was evaluated by soft agar colony formation assays. A-673 cells were infected with lentiviruses expressing shRNAs against NELL2 or scrambled shRNA and were selected with 2 μg/ml puromycin. Four days after infection, 4×10^3 cells were plated in soft agar. The soft agar cultures were composed of two layers; a base layer [4 ml in a 60-mm dish; DMEM/10% fetal bovine serum/0.6% noble agar (A5431, MilliporeSigma)/penicillin/streptomycin] and a cell layer (2 ml in a 60-mm dish; DMEM/10% fetal bovine serum/0.3% noble agar/penicillin/streptomycin). Colonies were grown for three weeks and counted. Colonies (>50 cells) were scored by randomly counting 10 fields per dish. Sphere formation assays were done (Dasgupta, A., et al. (2017) Oncotarget 8, 77292-77308) using ultra-low attachment 6-well plates (Corning: seeding density 1×10^4 cells/well) and DMEM/F-12 medium supplemented with B27, human recombinant epidermal growth factor (20 ng/ml), and basic fibroblast growth factor (20 ng/ml). For xenograft tumorigenicity assays, cells were subcutaneously injected into the flanks of SCID mice (2×10^6 cells/injection, five mice/group). Tumor growth was monitored weekly using a caliper. While it is not possible to predict the effect size, the sample size of five mice per group was chosen based on experience with xenograft experiments. Mice were randomly allocated to treatment groups. Blinding of the researcher measuring tumor size was employed.\nFlow cytometry. […]"}, "[7]": {"tested_on": "Robo3-FLAG on A-673 cell surface", "experiment": "Robo3-FLAG cell surface staining in NELL2-silenced cells", "format": "cell-based, human", "conditions": "A-673 cells; FIG. 2D", "protocol": "Immunofluorescence. Cells grown on coverslips were fixed with 4% paraformaldehyde for 15 minutes at room temperature, washed with PBS, and permeabilized with 0.2% pre-chilled Triton-X 100/PBS for 5 minutes. The samples were blocked with culture medium for one hour and incubated with the primary antibody for three hours followed by the secondary antibody for one hour. The following primary antibodies were used: rabbit polyclonal anti-NELL2 (NBP1-82527, Novus Biologicals); mouse monoclonal anti-FLAG M2 (F1804, MilliporeSigma); mouse monoclonal anti-CD133 AC133 (130-090-422, Miltenyi Biotec); rabbit polyclonal anti-FLI1 (ab15289, Abcam); and mouse monoclonal anti-CD99 (MS-1633-P0, Thermo Fisher Scientific). The following secondary antibodies were used: Alexa Fluor 488, goat anti-rabbit IgG (A11034, Thermo Fisher Scientific); Alexa Fluor 568, goat anti-rabbit IgG (A11036, Thermo Fisher Scientific); Alexa Fluor 488, goat anti-mouse IgM (A21042, Thermo Fisher Scientific); and Alexa Fluor 594, goat anti-mouse IgG (A11032, Thermo Fisher Scientific). Nuclei were stained with DAPI. DyLight™ 554 Phalloidin (13054, Cell Signaling Technologies) was used to visualize filopodia."}}, "note": "“Also recorded” adds a separate entry of the source."}
{"molecule": "C/C1=C\\[C@H](C)C[C@H](C)OC(=O)C[C@H](c2ccc(O)cc2)NC(=O)[C@@H](Cc2c(Br)[nH]c3ccccc23)N(C)C(=O)[C@H](C)NC(=O)[C@@H](C)C1", "note": "[Jasplakinolide]", "values": [{"measurement": "BRG1 and BRM pulled down by biotin-conjugated phalloidin", "setting": "[1]", "result": "more BRG1 and BRM are pulled down"}]}
{"molecule": "recombinant NELL2: purified recombinant NELL2 protein added to the culture medium (protein, UniProt Q99435 22-816, looked up) Protein kinase C-binding …: LGVDPSLQIDVLTELELGESTTGVRQVPGLHNGTKAFLFQDTPRSIKASTATAEQFFQKLRNKHEFTILVTLKQTHLNSGVILSIHHLDHRYLELESSGHRNEVRLHYRSGSHRPHTEVFPYILADDKWHKLSLAISASHLILHIDCNKIYERVVEKPSTDLPLGTTFWLGQRNNAHGYFKGIMQDVQLLVMPQGFIAQCPDLNRTCPTCNDFHGLVQKIMELQDILAKTSAKLSRAEQRMNRLDQCYCERTCTMKGTTYREFESWIDGCKNCTCLNGTIQCETLICPNPDCPLKSALAYVDGKCCKECKSICQFQGRTYFEGERNTVYSSSGVCVLYECKDQTMKLVESSGCPALDCPESHQITLSHSCCKVCKGYDFCSERHNCMENSICRNLNDRAVCSCRDGFRALREDNAYCEDIDECAEGRHYCRENTMCVNTPGSFMCICKTGYIRIDDYSCTEHDECITNQHNCDENALCFNTVGGHNCVCKPGYTGNGTTCKAFCKDGCRNGGACIAANVCACPQGFTGPSCETDIDECSDGFVQCDSRANCINLPGWYHCECRDGYHDNGMFSPSGESCEDIDECGTGRHSCANDTICFNLDGGYDCRCPHGKNCTGDCIHDGKVKHNGQIWVLENDRCSVCSCQNGFVMCRRMVCDCENPTVDLFCCPECDPRLSSQCLHQNGETLYNSGDTWVQNCQQCRCLQGEVDCWPLPCPDVECEFSILPENECCPRCVTDPCQADTIRNDITKTCLDEMNVVRFTGSSWIKHGTECTLCQCKNGHICCSVDPQCLQEL", "values": [{"measurement": "Proliferation inhibition by NELL2 silencing, rescue by recombinant protein", "setting": "[2]", "result": "rescues proliferation arrest; also recorded: completely rescued"}, {"measurement": "Proliferation inhibition by NELL2 silencing, rescue by recombinant protein", "setting": "[2]; listed as Recombinant NELL2", "result": "able to rescue the proliferation"}, {"measurement": "BAF subunit levels in NELL2 siRNA-transfected cells", "setting": "[3]; A-673 and EW8 cells, recombinant NELL2 250 ng/ml, FIG. 3J", "result": "restores the protein levels of BAF subunits; also recorded: rescued"}, {"measurement": "CD133 and BAF subunit protein levels in the CD133low population", "setting": "[3]; four or twenty-four hours, FIG. 5B", "result": "increases CD133 and BAF subunits; also recorded: increased CD133, BRG1, BAF250A, BAF155, and BAF47"}, {"measurement": "BRG1, BAF155, and BAF47 levels after NELL2 silencing in the presence of dasatinib", "setting": "[3]; recombinant NELL2 250 ng/ml, dasatinib present", "result": "rescued"}, {"measurement": "Activation of cdc42 and Rac by NELL2 silencing", "setting": "[4]; lane 1-3", "result": "abolished"}, {"measurement": "Active cdc42 and active Rac in srGAP1- and srGAP2-silenced cells", "setting": "[4]; lane 4-6", "result": "not affected"}, {"measurement": "Size of the BAF complexes after NELL2 silencing", "setting": "[5]", "result": "largely restored the size"}, {"measurement": "Recombinant NELL2 concentration able to rescue the slow growth of the CD133low population", "setting": "[6]", "result": "≥ 250", "unit": "ng/mL"}, {"measurement": "Slow growth of the CD133low population", "setting": "[6]", "result": "can be rescued; also recorded: rescues the slow growth"}, {"measurement": "Accumulation of Robo3-FLAG on the cell surface after NELL2 silencing", "setting": "[7]", "result": "reversed"}]}
